Target: the molecule itself
Test: crystal structure

B1: N-acetyl-L-ornithine transcarbamylase from Xanthomonas campestris, K302A mutant (enzyme)
chain: MSLKHFLNTQDWSRAELDALLTQAALFKRNKLGSELKGKSIALVFFNPSMRTRTSFELGAFQLGGHAVVLQPGKDAWPIEFNLGTVMDGDTEEHIAEVARVLGRYVDLIGVRAFPKFVDWSKDREDQVLKSFAKYSPVPVINMETITHPCQELAHALALQEHFGTPDLRGKKYVLTWTYHPKPLNTAVANSALTIATRMGMDVTLLCPTPDYILDERYMDWAAQNVAESGGSLQVSHDIDSAYAGADVVYAKSWGALPFFGNWEPEKPIRDQYQHFIVDERKMALTNNGVFSHCLPLRRNVAATDAVMDSPNCIAIDEAENRLHVQKAIMAALVGQSRP
binding result: binds

B2: N-acetyl-L-ornithine transcarbamylase from Xanthomonas campestris, K302R mutant (enzyme)
chain: MSLKHFLNTQDWSRAELDALLTQAALFKRNKLGSELKGKSIALVFFNPSMRTRTSFELGAFQLGGHAVVLQPGKDAWPIEFNLGTVMDGDTEEHIAEVARVLGRYVDLIGVRAFPKFVDWSKDREDQVLKSFAKYSPVPVINMETITHPCQELAHALALQEHFGTPDLRGKKYVLTWTYHPKPLNTAVANSALTIATRMGMDVTLLCPTPDYILDERYMDWAAQNVAESGGSLQVSHDIDSAYAGADVVYAKSWGALPFFGNWEPEKPIRDQYQHFIVDERKMALTNNGVFSHCLPLRRNVRATDAVMDSPNCIAIDEAENRLHVQKAIMAALVGQSRP
binding result: binds

B3: N-acetyl-L-ornithine transcarbamylase from Xanthomonas campestris, K302E mutant (enzyme)
chain: MSLKHFLNTQDWSRAELDALLTQAALFKRNKLGSELKGKSIALVFFNPSMRTRTSFELGAFQLGGHAVVLQPGKDAWPIEFNLGTVMDGDTEEHIAEVARVLGRYVDLIGVRAFPKFVDWSKDREDQVLKSFAKYSPVPVINMETITHPCQELAHALALQEHFGTPDLRGKKYVLTWTYHPKPLNTAVANSALTIATRMGMDVTLLCPTPDYILDERYMDWAAQNVAESGGSLQVSHDIDSAYAGADVVYAKSWGALPFFGNWEPEKPIRDQYQHFIVDERKMALTNNGVFSHCLPLRRNVEATDAVMDSPNCIAIDEAENRLHVQKAIMAALVGQSRP
binding result: binds

Source: PMC2959125 (Biochemistry, 2010)
